# Data from patent publication US20250382344A1, “Soluble GLP1/GIP/NPY2 Receptor Triple Agonists” (Boehringer Ingelheim International GmH, priority 2024, published 2025).
# Numbering of substitutions follows the chain as printed. *1 amine or outer side, *2 acyl side, *3 side chain or, on linkers, in order; H or OH if unused. Where no end group is shown, it is not given here. Side-chain parts run from the residue outwards. [ ]: non-standard residue; d: D form. The star is where a group is joined. C20 diacid = O=C(O)CCCCCCCCCCCCCCCCCCC(=O)*; C18 diacid = O=C(O)CCCCCCCCCCCCCCCCC(=O)*; γGlu = O=C(O)[C@H](CCC(=O)[*:2])N[*:1]; εLys = N[C@@H](CCCCN[*:1])C(=O)[*:2]; AEEA = NCCOCCOCC(=O)O; Aib = CC(C)(N)C(=O)O; Ahx = NCCCCCC(=O)O
# T1: human neuropeptide Y2 receptor (human, UniProt P49146 1-381)
# T1 sequence (looked up): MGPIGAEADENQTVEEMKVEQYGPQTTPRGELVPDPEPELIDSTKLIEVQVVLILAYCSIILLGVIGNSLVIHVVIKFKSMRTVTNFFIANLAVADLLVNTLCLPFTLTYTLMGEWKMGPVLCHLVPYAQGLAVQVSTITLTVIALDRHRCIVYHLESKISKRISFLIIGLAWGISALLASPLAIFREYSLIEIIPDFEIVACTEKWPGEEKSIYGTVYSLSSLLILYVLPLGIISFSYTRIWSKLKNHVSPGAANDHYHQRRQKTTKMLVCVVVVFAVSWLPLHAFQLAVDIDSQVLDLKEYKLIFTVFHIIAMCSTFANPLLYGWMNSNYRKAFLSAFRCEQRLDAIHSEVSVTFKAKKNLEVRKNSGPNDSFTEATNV
# T2: human neuropeptide Y2 receptor (human, UniProt P49146 1-381)
# T2 sequence (looked up): T1 sequence (looked up)
# B1: Compound 38 (peptide)
# peptide: YXEGTFTSDYSIXLEKQAQXAFVRHLINKXTRQRY
# modifications: Aib at 2, 13, 20, 30; Lys29 epsilon-amino acylated with C18DA-gGlu-gGlu-gGlu-gGlu-gGlu-gGlu-gGlu; C-terminal amide
# B2: Compound 49 (peptide)
# peptide: B1 peptide
# modifications: Aib at 2, 20, 30; aMeL at 13; Lys29 epsilon-amino acylated with C20DA-gGlu-gGlu-gGlu-gGlu-gGlu-gGlu; C-terminal amide
# B3: Compound 10 (peptide)
# peptide: B1 peptide with Q19E
# modifications: Aib at 2, 13, 20, 30; Lys29 epsilon-amino acylated with C18DA-gGlu-gGlu-gGlu-gGlu-gGlu-gGlu-eLys; C-terminal amide
# B4: Compound 13 (peptide)
# peptide: B1 peptide
# modifications: Aib at 2, 13, 20, 30; Lys29 epsilon-amino acylated with C18DA-gGlu-gGlu-gGlu-gGlu-gGlu-AHX; C-terminal amide
# B5: Compound 98 (peptide)
# peptide: B1 peptide with A21E
# modifications: Aib at 2, 13, 20, 30; Lys29 epsilon-amino: C18DA-gGlu-gGlu-gGlu-gGlu-gGlu-OEG-OEG; C-terminal amide
# B6: Compound 123 (peptide)
# peptide: B1 peptide with K16A
# modifications: Aib at 2, 13, 20, 30; Lys29 epsilon-amino: C18DA-gGlu-gGlu-gGlu-gGlu-gGlu-gGlu-eLys; C-terminal amide
# B7: Compound 117 (peptide)
# peptide: B1 peptide
# modifications: Aib at 2, 13, 20, 30; Lys29 epsilon-amino: C18DA-gGlu-gGlu-gGlu-gGlu-gGlu-OEG-OEG; C-terminal amide
# B8: Compound 131 (peptide)
# peptide: B1 peptide with E15D, A21E
# modifications: Aib at 2, 13, 20, 30; Lys29 epsilon-amino: C18DA-gGlu-gGlu-gGlu-gGlu-gGlu-gGlu-eLys; C-terminal amide
# B9: Compound 107 (peptide)
# peptide: B1 peptide with I27L
# modifications: Aib at 2, 13, 20, 30; Lys29 epsilon-amino: C18DA-gGlu-gGlu-gGlu-gGlu-gGlu-gGlu-eLys; C-terminal amide
# Molecular target: T1, human neuropeptide Y2 receptor
# Assay: cell-based or functional assay
"EC50, CreLuc reporter, 0.5% hP [nM]","EC50, CreLuc reporter, 100% hP [nM]",Binder
14.6,28,Y[Aib]EGTFTSDYSI[Aib]LEKQAQ[Aib]AFVRHLINK([γGlu-γGlu-εLys-γGlu-γGlu-γGlu-γGlu-C18 diacid])[Aib]TRQRY-NH2 [Compound 34]
33.9,81.1,Y[Aib]EGTFTSDYSI[Aib]LEKQAQ[Aib]EFVRHLINK([εLys-γGlu-γGlu-γGlu-γGlu-γGlu-γGlu-γGlu-C18 diacid])[Aib]TRQRY-NH2 [Compound 30]
–,141,B1
–,763,B2
26.3,28.2,B3
18.7,121,B4
25.1,75.4,Y[Aib]EGTFTSDYSI[Aib]LEKQAQ[Aib]AFVRHLINK([Ahx-γGlu-γGlu-γGlu-γGlu-γGlu-γGlu-C18 diacid])[Aib]TRQRY-NH2 [Compound 9]
19.9,72.6,Y[Aib]EGTFTSDYSI[Aib]LEKQAQ[Aib]AFVRHLINK([AEEA-γGlu-γGlu-γGlu-γGlu-γGlu-γGlu-C18 diacid])[Aib]TRQRY-NH2 [Compound 47]

# Molecular target: T2, human neuropeptide Y2 receptor
# Assay: cell-based or functional assay
"EC50, CreLuc reporter, 0.5% hP [nM]","EC50, CreLuc reporter, 100% hP [nM]",Binder
27.3,202,B5
51.6,232,B6
–,39.2,B7
17.5,85.9,B8
13.3,20.3,B9
20.3,120,Y[Aib]EGTFTSDYSI[Aib]LDEQAQ[Aib]AFVRHLINK([εLys-γGlu-γGlu-γGlu-γGlu-γGlu-C18 diacid])[Aib]TRQRY-NH2 [Compound 108]
15.9,135,Y[Aib]EGTFTSDYSI[Aib]LEKQAQ[Aib]AFVRHLINK([Ahx-γGlu-γGlu-γGlu-γGlu-γGlu-γGlu-C20 diacid])[Aib]TRQRY-NH2 [Compound 157]
27.7,–,Y[Aib]EGTFTSDYSI[Aib]LEKQAQ[Aib]AFVRHLINK([γGlu-γGlu-γGlu-εLys-γGlu-γGlu-γGlu-C18 diacid])[Aib]TRQRY-NH2 [Compound 168]
